Numbering of substitutions follows the chain as printed. No end group written: not given here. rhodamine = not defined here
Experiments:
[1] = format: physicochemical; settings: 10 μM peptide, pH 7.0, 20° C.
Procedure: The circular dichroism (measured in units of ellipticity) of proteins at 222 nm provides a measure of the amount of a-helix present in the structure, with a large, negative ellipticity indicting a high level of helicity. The coiled-coil has a distinctive a-helical CD spectrum with minima at 222 nm and 208 nm (O'Shea et al., 1989, Science, 243: 538–542). The CD spectra of the unmodified Zip3 and its phosphorylated form (‘Zip3P’) are determined at a sample concentration of 10 μM in 150 mM KCB, 42.2 mM K2HPO4, 7.8 mM KH2PO4, pH 7.0 at 20° C.; spectra are recorded using a 1 mm pathlength cell in a Jasco J-715 spectropolarimeter with a Jasco PTC-348W Peltier temperature control unit. Peptide concentration is determined by tyrosine absorbance at 280 nm in 6M GuHCl. […] The effipticities of Zip3 and Zip3P at 222 nm with increasing temperature are measured. The steep portion of the sigmoid curve for Zip3 indicates the unfolding of the molecule. It is clear that this leucine zipper peptide begins to unfold at around 35° C. and is completely unfolded by 70° C. […]
The circular dichroism (measured in units of ellipticity) of proteins at 222 nm provides a measure of the amount of a-helix present in the structure, with a large, negative ellipticity indicting a high level of helicity. […] In all experiments described herein, peptide concentration is determined by tyrosine absorbance at 280 nm in 6M GnHCl.

chymotrypsin = assay: Time-course digestion with chymotrypsin, MALDI-TOF; format: biochemical
Procedure: A time-course digestion of Peptide A with chymotrypsin is analysed by MALDI-TOF mass spectrometry. On the protein matrix (MS, denoted SA on each spectrogram) the Peptide A substrate as 4245 Da is evident. […] The C-terminal fragment appears to be cleaved at a second site (after L-26) generating a product of 1100 Da, although the final peptide fragment of about 990 Da is not observed in the MS.

aminopeptidase = assay: Aminopeptidase digestion, FRET; format: biochemical
peptide D = assay: FRET of fluorescein-labelled peptides N and C with rhodamine-labelled peptide D; format: binding; settings: no peptidase
carboxypeptidase = assay: Carboxypeptidase digestion, FRET; format: biochemical
[2] = tested on: Ca^2+/Calmodulin-dependent Protein Kinase (CaMK-II); assay: Timecourse of phosphorylation by CaMK-II (32P-ATP); format: biochemical; settings: 10% crude CaMK-II, 0.5 mM Ca^2+, 0.037 mg/ml calmodulin, 0.2 mM ATP
Procedure: A set of timecourses of phosphorylation is performed on Zip4S using PKA and Ca^2+/Calmodulin-dependent Protein Kinase (CaMK-II), together with positive and negative controls for CaMK-II (these controls confirm that the preparation of CaMK-II posesses the expected characteristics of that enzyme). PKA phosphorylation is performed in 50 mM histidine/HCl (pH 7.0), 5 mM MgSO4, 5 mM NaF, 0.05 mM EGTA, 120 mM kcb with 0.2 mM ATP (39.72 cpm/pmol ^32P-ATP) and 0.25 μM PKA. CaMK-II phosphorylation is performed in 50 mM histidine/HCl (pH 7.0), 5 mM MgSO4, 5 mM NaF, 120 mM kcb, 0.5 mM Ca^2+, 0.037 mg/ml calmodulin with 0.2 mM ATP (39.72 cpm/pmol ^32P-ATP) and 10% crude CaMK-II. In the Ca^2+-free experiment, Ca^2+ is replaced by 0.05 mM EGTA. […] Such specificity of a modification site in a polypeptide according to the invention is a clear advantage for use of the invention in an intracellular assay, or for measuring the activity of a particular polypeptide modifying agent in a complex mixture such as a cell lysate.

PKA = PKA (Homo sapiens, UniProt P17612); assay: Timecourse of phosphorylation by PKA (32P-ATP); format: biochemical; settings: 0.2 mM ATP
Procedure: A timecourse of phosphorylation of these peptides by PKA is run in 50 mM histidine/HCl (pH 7.0), 5 mM MgSO4, 5 mM NaF, 0.05 mM EGTA, 120 mM kcb with 0.2 mM ATP (30.9 cpm/pmol ^32P-ATP) and 0.5 μM PKA. […] Zip4T is also phosphorylated, at a slower rate, with full phosphorylation achieved in 30 minutes in this assay. In this assay, the difference in cpm recovered between the Zip4 peptides and PL919Y is due to the difference in recovery of these peptides on P81 paper. The plateau indicates full phosphorylation.
A set of timecourses of phosphorylation is performed on Zip4S using PKA and Ca^2+/Calmodulin-dependent Protein Kinase (CaMK-II), together with positive and negative controls for CaMK-II (these controls confirm that the preparation of CaMK-II posesses the expected characteristics of that enzyme). PKA phosphorylation is performed in 50 mM histidine/HCl (pH 7.0), 5 mM MgSO4, 5 mM NaF, 0.05 mM EGTA, 120 mM kcb with 0.2 mM ATP (39.72 cpm/pmol ^32P-ATP) and 0.25 μM PKA. CaMK-II phosphorylation is performed in 50 mM histidine/HCl (pH 7.0), 5 mM MgSO4, 5 mM NaF, 120 mM kcb, 0.5 mM Ca^2+, 0.037 mg/ml calmodulin with 0.2 mM ATP (39.72 cpm/pmol ^32P-ATP) and 10% crude CaMK-II. In the Ca^2+-free experiment, Ca^2+ is replaced by 0.05 mM EGTA. […]

[3] = target: T1, Peptide N, fluorescein-labelled (fluorescein label at the K residue); assay: FRET, peptide N immobilised
T1 peptide: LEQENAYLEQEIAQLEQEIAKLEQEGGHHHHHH

[4] = target: T2, Peptide C, fluorescein-labelled (fluorescein label (site said to be 'the C and K residues as before', but the entry has neither Cys nor Lys)); assay: FRET, peptide C immobilised
T2 peptide: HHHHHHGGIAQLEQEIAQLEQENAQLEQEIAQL

[5] = target: T3, Peptide 3 (SEQ ID NO. 54), labelled with fluorescein (fluorescein at the lysine residue); assay: FRET, Peptide 3 immobilised
T3 construct: also called peptides 3
T3 peptide: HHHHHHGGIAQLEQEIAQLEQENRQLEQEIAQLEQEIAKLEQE

[6] = target: T4, Pep 1F (Pep 1 peptide labelled with fluorescein) (not fully specified; fluorescein label; the lysine residue is inserted for labelling purposes); assay: FRET in solution, 50 µM Pep 1F and 50 µM Pep 2R, 37 °C
T4 construct: Unphosphorylated
T4 peptide: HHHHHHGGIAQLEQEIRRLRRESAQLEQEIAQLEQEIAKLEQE
Procedure: Fluorescence emission of fluorescein is measured at 520 nm by exciting at appropriate wavelength (450 nm). Pep 2R (Pep 2 labelled with rhodamine) at concentrations equal to that of Pep 1F (50 μM) is added and the fluorescence emission of Pep 1F and Pep 2R are monitored.

Zip4SF = target: T5, Zip4SF (fluorescein label (on the cysteine residue, by analogy with Zip3F)); assay: FRET in solution
T5 construct: read as Zip4S with fluorescein, like Zip3F; also called Zip4S labelled with fluorescein
T5 peptide: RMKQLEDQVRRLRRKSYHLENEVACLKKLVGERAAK

[7] = target: T6, Peptide 4 (SEQ ID NO. 56) (fluorescein label, by the procedure of Example 10 (not restated)); assay: FRET, procedure of Example 10
T6 construct: Immobilised peptide of the caspase reporter; also called Peptides 4
T6 peptide: T3 peptide with Q21D, R24D

Pep 1 = target: T7, Pep 1; assay: statement in Example 3
T7 construct: Unphosphorylated; immobilised by its His tag on a Ni-NTA sensor chip in the Biacore assay
T7 peptide: T4 peptide

For “HHHHHHGGIAQLEQEIAQLEQENAYLEQEIAQLEQEIAKLEQE [Peptide A]”, the “CD spectrum (structure indicated)” value [1] was “classic coiled-coil” and the digestion by chymotrypsin (chymotrypsin) was “degraded completely over two hours”.

In the case of “LEQENAYLEQEIAQLEQEIAKLEQEGGHHHHHH [Peptide N]”, the “FRET of pair with peptide D after addition of aminopeptidase” value (aminopeptidase) is reported as “complete loss of FRET”, the “FRET in the presence of rhodamine-labelled peptide D” value (peptide D) is reported as “FRET is observed” and the “FRET of pair with peptide D after addition of carboxypeptidase” value (carboxypeptidase) is reported as “not affected”.

In the case of “R MKQLEDQ VRRLRRK SYHLENE VACLKKL VGERAAK (RMKQLEDQVRRLRRKSYHLENEVACLKKLVGERAAK) [Zip4S]”, the “phosphorylation by CaMK-II” value [2] is reported as “unable to phosphorylate”, the “extent of phosphorylation by PKA” value (PKA; 0.25 μM PKA) is reported as “complete phosphorylation” and the “phosphorylation by PKA (substrate quality, rate)” value (PKA; 0.5 μM PKA, compared with known substrate PL919Y) is reported as “good substrate”.

B1: Peptide D, rhodamine-labelled (peptide)
peptide: IAQLKQKIAQLKQKNAQLKQKIAQLKQKIC(rhodamine)QLKQK
modifications: reading uncertain
B1: binds [3]; binds [4].

B2: peptide 33 (SEQ ID NO. 55), labelled with rhodamine (peptide)
peptide: IAQLKQKIAQLKQKNAQLKQKIAQLKQKIC(rhodamine)QLKQK
modifications: reading uncertain
B2: binds [5].

B3: Pep 2R (Pep 2 peptide labelled with rhodamine) (peptide)
peptide: IAQLKQEIAQLKQKNAQLKQKIAQLKQKIC(rhodamine)QLKQK
modifications: reading uncertain
B3: binds [6].

B4: Zip4SR (peptide)
peptide: T5 peptide
modifications: also: rhodamine label, read from undefined name by analogy with Zip3R
notes: read as Zip4S with rhodamine, like Zip3R; also called Zip4S labelled with rhodamine
B4: binds (Zip4SF).

B5: Peptide 44 (SEQ ID NO. 57) (peptide)
peptide: IAQLKQKIAQLKQKNAQLKQKIAQLKQKICQLKQK
modifications: also: rhodamine label by procedure, site not given here
B5: binds [7].

B6: Pep 2 (peptide)
peptide: B5 peptide with K7E
B6: binds (Pep 1).

From patent US7166475B2, “Compositions and methods for monitoring the modification state of a pair of polypeptides” (Cyclacel Ltd., priority 1999, dated 2007)
